From US20220127366A1 (DREN BIO, published 2022)
Read-outs that look alike come from different tables or passages of the source.

T1: human Dectin-1 (isoform not given) (human, UniProt Q9BXN2 1-247)
T1 chain: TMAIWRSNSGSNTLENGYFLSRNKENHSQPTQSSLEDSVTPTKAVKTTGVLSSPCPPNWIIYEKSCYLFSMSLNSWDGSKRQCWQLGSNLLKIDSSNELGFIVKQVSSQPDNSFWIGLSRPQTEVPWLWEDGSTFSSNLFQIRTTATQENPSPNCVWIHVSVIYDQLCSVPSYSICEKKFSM

T2: human CD20 (human, UniProt P11836 1-297)
T2 construct: whole, on cells; also called hCD20
T2 sequence (looked up): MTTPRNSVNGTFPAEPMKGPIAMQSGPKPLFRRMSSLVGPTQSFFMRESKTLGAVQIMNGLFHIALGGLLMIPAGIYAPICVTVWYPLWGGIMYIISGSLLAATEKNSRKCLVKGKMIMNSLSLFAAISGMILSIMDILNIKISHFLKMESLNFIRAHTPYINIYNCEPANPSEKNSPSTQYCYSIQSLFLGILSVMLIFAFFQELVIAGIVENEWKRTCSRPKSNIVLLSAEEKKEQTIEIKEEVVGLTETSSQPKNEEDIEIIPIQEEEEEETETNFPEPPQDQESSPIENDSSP


What was measured:
[1] = biological target: human Dectin-1 isoform B (human) (UniProt Q9BXN2); experiment: flow cytometry, HEK-Blue hDectin-1b cells
[2] = biological target: human Dectin-1 isoform A (human) (UniProt Q9BXN2); experiment: flow cytometry, HEK-Blue hDectin-1a cells
[3] = biological target: cynomolgus monkey Dectin-1 (cynomolgus monkey); experiment: flow cytometry, cynomolgus monkey monocytes
[4] = biological target: cynomolgus monkey Dectin-1 (cynomolgus monkey); experiment: flow cytometry, cynomolgus monkey monocytes; remark: listed apart in the source
[5] = biological target: T1, human Dectin-1 (isoform not given); experiment: flow cytometry, human monocytes
[6] = biological target: human Dectin-1 isoform A (human) (UniProt Q9BXN2); experiment: flow cytometry, HEK293F hDectin-1a FL cells
human CD20 = biological target: T2, human CD20; experiment: flow cytometry, Raji cells
[7] = biological target: T1, human Dectin-1 (isoform not given); experiment: flow cytometry, HEK 293 cells stably overexpressing human Dectin-1
[8] = biological target: T1, human Dectin-1 (isoform not given); experiment: cell-based or functional assay

Molecule	EC50 [1]	EC50 [2]	EC50 [5]	EC50 [6]	binding result (human CD20)	further results
anti-Dectin-1 antibody 259931 (commercial)	0.9 nM	0.8 nM	0.3 nM	1.2 nM	–	EC50 [3]: 16 nM; EC50 [4]: 16.5 nM
anti-Dectin-1 antibody GE2 (commercial)	12 nM	1.9 nM	1.4 nM	2.4 nM	–	–
2M24/RSV hIgG1 (fucosylated or afucosylated) (bispecific antibody, V domains shown) VH 1: QVQLVQSGAEVKKPGASVKVSCKSSGYTFTDYYIHWVRQAPGQGLEWMGWINPNSGDTNYAQKFQGRITMTRDTSISTAYLELSRLRSDDTAVFYCARNSGSYSFGYWGQGTLVTVSS VL 1: DIQMTQSPSSVSASVGDRVTITCRASQGISSWLAWYQQKPGKAPKLLIFGASSLQSGVPSRFSGSGSGTDFTLTVSSLQPEDFATYYCQQAYSFPFTFGPGTKVDIE VH 2: QVTLRESGPALVKPTQTLTLTCTFSGFSLSTSGMSVGWIRQPPGKALEWLADIWWDDKKDYNPSLKSRLTISKDTSANQVVLKVTNMDPADTATYYCARSMITNWYFDVWGAGTTVTVSS VL 2: DIQMTQSPSTLSASVGDRVTITCKCQLSVGYMHWYQQKPGKAPKLLIYDTSKLASGVPSRFSGSGSGTAFTLTISSLQPDDFATYYCFQGSGYPFTFGGGTKLEIK	–	–	–	–	no binding (tested: between 10 and 100 nM (about 60 nM))	–
Fab 2M24-mSA fusion protein (Fab, V domains shown, only the 2M24 VL is tied; also called Fab 2M24 fusion to monomeric streptavidin) VH: QVQLVQSGAEVKKPGASVKVSCKSSGYTFTDYYIHWVRQAPGQGLEWMGWINPNSGDTNYAQKFQGRITMTRDTSISTAYLELSRLRSDDTAVFYCARNSGSYSFGYWGQGTLVTVSS VL: DIQMTQSPSSVSASVGDRVTITCRASQGISSWLAWYQQKPGKAPKLLIFGASSLQSGVPSRFSGSGSGTDFTLTVSSLQPEDFATYYCQQAYSFPFTFGPGTKVDIE	–	–	–	–	–	EC50 [7]: 1.45 nM
2M24/RSV hIgG1 inert (bispecific antibody, V domains shown, also called 2M24/RSV with inert human IgG1 Fc) VH 1: QVQLVQSGAEVKKPGASVKVSCKSSGYTFTDYYIHWVRQAPGQGLEWMGWINPNSGDTNYAQKFQGRITMTRDTSISTAYLELSRLRSDDTAVFYCARNSGSYSFGYWGQGTLVTVSS VL 1: DIQMTQSPSSVSASVGDRVTITCRASQGISSWLAWYQQKPGKAPKLLIFGASSLQSGVPSRFSGSGSGTDFTLTVSSLQPEDFATYYCQQAYSFPFTFGPGTKVDIE VH 2: QVTLRESGPALVKPTQTLTLTCTFSGFSLSTSGMSVGWIRQPPGKALEWLADIWWDDKKDYNPSLKSRLTISKDTSANQVVLKVTNMDPADTATYYCARSMITNWYFDVWGAGTTVTVSS VL 2: DIQMTQSPSTLSASVGDRVTITCKCQLSVGYMHWYQQKPGKAPKLLIYDTSKLASGVPSRFSGSGSGTAFTLTISSLQPDDFATYYCFQGSGYPFTFGGGTKLEIK	–	–	–	–	no binding (tested: between 10 and 100 nM (about 60 nM))	–
anti-Dectin-1 antibody 15E2 (commercial) (antibody, V domains shown) VH: QWQLQQSGAELARPGASWKMSCKASGYTFTTYTMHWWKQRPGQGLEWIGYINPSSGYTNYNQKFKDKATLTADKSSSTASMQLSSLTSEDSAWYYCARERAVLVPYAMDYWGQGTSVTVSS VL: QIVLTQSPAVMSASPGEKWTITCTASSSLSYMHWFQQKPGTSPKLWLYSTSILASGVPTRFSGSGSGTSYSLTISRMEAEDAATYYCQQRSSSPFTFGSGTKLEIK	–	–	–	–	–	IFNg secretion in PBMC (fold change to isotype), immobilized antibody [8]: 1.6 fold change to isotype; IL6 secretion in PBMC (fold change to isotype), immobilized antibody [8]: 2.6 fold change to isotype; TNFa secretion in PBMC (fold change to isotype), immobilized antibody [8]: 3 fold change to isotype
